Assay results from patent US4829052A, “Serine protease inhibitors” (Monsanto Company, priority 1987, dated 1989).
Where two headings read alike, the source gives them in different places.

Key:
bovine trypsin [1] = biological target: T1, bovine trypsin (Bos taurus, UniProt P00760); conditions: stated for comparison, no test described; cited from earlier work
T1 sequence (P00760 24-246): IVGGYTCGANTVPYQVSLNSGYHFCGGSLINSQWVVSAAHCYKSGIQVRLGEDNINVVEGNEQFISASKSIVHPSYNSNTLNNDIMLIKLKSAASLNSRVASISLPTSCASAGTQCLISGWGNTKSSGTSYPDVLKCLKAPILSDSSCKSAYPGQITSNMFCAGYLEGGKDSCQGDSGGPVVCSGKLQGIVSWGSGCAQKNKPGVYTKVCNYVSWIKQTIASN

Human Sputum Cathepsin G [2] = biological target: T2, Human Sputum Cathepsin G (Homo sapiens, UniProt P08311); conditions: stated for comparison, no test described; cited from earlier work
T2 construct: Human Sputum Cathepsin G (Product No. SG-45, EPC, Inc., Pacific, Mo.); purchased EPC, Inc., Pacific, Mo; SG-45; host or cells: human sputum
T2 sequence (P08311 21-255): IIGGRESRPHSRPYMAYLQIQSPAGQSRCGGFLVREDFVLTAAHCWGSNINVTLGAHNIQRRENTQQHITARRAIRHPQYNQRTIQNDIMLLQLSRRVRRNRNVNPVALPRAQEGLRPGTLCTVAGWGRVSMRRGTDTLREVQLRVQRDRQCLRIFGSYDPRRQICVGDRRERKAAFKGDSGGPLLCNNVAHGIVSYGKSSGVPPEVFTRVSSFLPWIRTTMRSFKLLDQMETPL

bovine chymotrypsin [3] = biological target: T3, bovine chymotrypsin (Bos taurus, UniProt P00766); conditions: stated for comparison, no test described; cited from earlier work
bovine trypsin [4] = biological target: T1, bovine trypsin; experiment: Trypsin assay (spectrophotometric, N-Benzoyl-L-arginine p-nitroanilide substrate); assay type: biochemical; conditions: for Inhibitory Activity Trypsin: inhibitor/protease ratio between about 10/1 and 50/1
Description: (§1) The inhibitory activity of the polypeptides of the present invention can be easily assayed using in vitro assays. In these types of spectrophotometric assays the activity of the serine protease is measured toward an appropriate p-nitroanilide substrate in the presence and absence of the peptide inhibitor. The enzyme catalyzed hydrolysis of the peptide p-nitroanilide substrate produces p-nitroanaline which results in an increase in absorbance which is monitored in the range of 405 to 410 nm. The rate of increase in absorbance is a measure of the enzymatic activity and the decrease in this rate relative to a suitable control is used to ascertain inhibition. The general assay procedure and details of the particular assays employed in the examples are provided in the Appendix following the examples. It is also possible to test the polypeptides in a functionally oriented assay that emulates in vivo conditions. Such an inhibition assay for elastase is also described in the Appendix.
(§2) Generalized Protocol Spectrophotometric Assays:
(§3) (1) Pipette 100 μl of enzyme solution into a disposable polystyrene cuvette (1 cm optical path length).
(§4) (2) Add (1900-X) μl of bufferto the cuvette, where X is the volume of test solution in microliters that is added in the next step.
(§5) Add X μl of test solution to the cuvette, where X ranges from 0 μl for the control to a maximum of about 500 μl. Incubate the solution for a period of 1 to 5 minutes at ambient temperature.
(§6) (4) Add 100 μl of substrate solution to the cuvette. Mix the contents by covering the cuvette with a piece of paraffin film and repeatedly inverting for a period of 5 to 15 seconds.
(§7) (5) Record the change in absorbance for about 5 minutes at either 405 or 410 nm, depending on the assay, with a spectrophotometer equipped with a suitable recording device.
(§8) The percent inhibition is calculated from the formula [formula] where (ΔA/min) is the initial rate of absorbance change.
(§9) (7) For more accurate quantitative determinations temperature control of the cuvette holders and the reagent solutions can be instituted.
(§10) (8) The test solution can be crude oxidized peptide prepared as described above, fractions from a chromatographic separation or purified polypeptides.
(A) Buffer Solution - Triethanolamine buffer consisting of 200 mM triethanolamine, 20 mM CaCl2, pH 7.8
(B) Substrate solution - Dissolve 50 mg of N-Benzoyl-L-arginine p-nitroanilide in 50 ml of water. Sonicate for 5 to 10 minutes to completely dissolve the solid material.
(C) Enzyme solution - Dissolve 1 mg of bovine trypsin in 10 ml of 0.001N HCl stored on ice during the assay.
(§11) (D) Test Solution - See general protocol, number 8.
(§12) Procedure: Use the above solutions in the general protocol described above.

Human Sputum Elastase = biological target: T4, Human Sputum Elastase (Homo sapiens, UniProt P08246); experiment: Elastase assay (spectrophotometric, p-nitroanilide substrate); assay type: biochemical; conditions: for Inhibitory Activity Elastase: inhibitor/protease ratio between about 10/1 and 50/1; for inhibition of human elastase (in words): text discussion of Table III
T4 construct: Human Sputum Elastase, product No. SE-563 EPC, Inc., Pacific, Mo; USA, Lot 85701; purchased EPC, Inc., Pacific, Mo; USA SE-563; host or cells: human sputum
T4 sequence (P08246 30-267): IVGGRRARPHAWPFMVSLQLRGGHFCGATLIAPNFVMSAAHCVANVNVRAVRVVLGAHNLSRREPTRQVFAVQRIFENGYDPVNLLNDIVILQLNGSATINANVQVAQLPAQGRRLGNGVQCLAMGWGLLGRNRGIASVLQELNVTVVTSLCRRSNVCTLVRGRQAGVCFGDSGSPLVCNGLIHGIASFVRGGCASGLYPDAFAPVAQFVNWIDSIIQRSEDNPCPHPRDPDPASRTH
Description: as §1, §2, §3, §4, §5, §6, §7, §8, §9, §10
(A) Buffer Solution - Tris-NaCl buffer consisting of 0.1M Tris-HCl pH 7.5 at 25° C. containing 0.5M NaCl and 0.01% (w/v) NaNs.
(B) Substrate Solution - Dissolve 45.5 mg of N-succinyl-L-alanyl-L-alanyl-L-alanine p-nitroanilide in 1 ml of 1-methyl-2-pyrrolidinone. Add 32 ml of Tris-NaCl buffer.
(C) Enzyme Solution - Human Sputum Elastase, product No. SE-563 EPC, Inc., Pacific, Mo. USA, Lot 85701. Dissolve 1 mg in 1 ml of Tris-NaCl buffer. Store on ice or at 4° C.
as §11, §12
(1) Buffer Solution - Tris-NaCl buffer -see Method 1.
(2) Substrate Solution - Dissolve 50 mg of 3-carbomethoxypropionyl-L-alanyl-L-alanyl-L-[…]-L-valine p-nitroanilidein 1 ml of 1-methyl-2-pyrrolidinone. Add 32 ml of Tris-NaCl buffer.
(3) Enzyme Solution - Human sputum elastase, product No. SE-563, EPC, inc. Pacific, Mo. USA, Lot 85071. Prepare a sample at a concentration of 0.01 mg per ml of Tris-NaCl buffer. Store on ice.
(4) Test Solution - general protocol, number 8.
Procedure: Use the above solutions in the general protocol.
(1) Porcine pancreatic elastase may be substituted for human elastase when it is desired to test for an inhibitor of the former.
(2) The activity of an elastase preparation can be calculated as [formula]
(3) The Tris-NaCl buffer also can be pH 8.0 with 0.03% sodium azide. Results should be compared at a single pH.

Human Sputum Cathepsin G [5] = biological target: T2, Human Sputum Cathepsin G; experiment: Cathepsin G assay (spectrophotometric, p-nitroanilide substrate); assay type: biochemical; conditions: for Inhibitory Activity Cathepsin G: inhibitor/protease ratio between about 10/1 and 50/1
Description: as §1, §2, §3, §4, §5, §6, §7, §8, §9, §10
(A) Buffer Solution - Tris-NaCl buffer consisting of 0.1M Tris-HCl, pH 8.0 containing 0.5M NaCl and 0.03% sodium azide.
(B) Substrate solution - Dissolve 50 mg of N-succinyl-L-alanyl-L-alanyl-L-prolyl-L-phenylalanine p-nitroanilide in 1 ml of 1-methyl-2-pyrrolidinone and dilute to 50 ml with Tris-NaCl buffer.
(C) Enzyme Solution - Human Sputum Cathepsin G (Product No. SG-45, EPC, Inc., Pacific, Mo.). Dissolve 1 mg of protein per 1 ml of Tris-NaCl buffer. Store on ice or at 4° C.
(D) Test Solutions - See the general protocol, number 8.
Procedure: Use the above solution in the general protocol described above. […]

bovine chymotrypsin [6] = biological target: T3, bovine chymotrypsin; experiment: Chymotrypsin assay (spectrophotometric, p-nitroanilide substrate); assay type: biochemical; conditions: for Inhibitory Activity Chymotrypsin: inhibitor/protease ratio between about 10/1 and 50/1
Description: as §1, §2, §3, §4, §5, §6, §7, §8, §9, §10
(A) Buffer solution - triethanolamine buffer- See trypsin assay.
(B) Substrate Solution - Dissolve 25 mg of 3-carbomethoxypropionyl-L-arginyl-L-prolyl-L-tyrosine p-nitroanilide (Product No. S-2586, KabiVitrum AB, Stockholm, Sweden) in 23.6 ml of water
(C) Enzyme solution - Dissolve 1 mg of bovine chymotrypsin in 4 ml of 0.001N HCl. Prepare the final dilution by combining 0.1 ml of the stock chymotrypsin solution and 10 ml of 0.001N HCl. Store on ice or at 4° C.
Procedure: Use the above solutions in the general protocol
(2) See note 1 of the cathepsin G assay.
(3) 0.1M Tris-HCl, pH 7.8, 20 mM CaCl2, 0.05% triton X-100 can be substituted for the triethanolamine buffer.

Substance | inhibition of trypsin (in words) (bovine trypsin [1]) | inhibition of cathepsin G (in words) (Human Sputum Cathepsin G [2]) | inhibition of chymotrypsin (in words) (bovine chymotrypsin [3]) | Inhibitory Activity Trypsin (bovine trypsin [4]) | inhibition of trypsin (in words) (bovine trypsin [4]; text discussion of Table III) | Inhibitory Activity Elastase (Human Sputum Elastase) | inhibition of human elastase (in words) (Human Sputum Elastase) | Inhibitory Activity Cathepsin G (Human Sputum Cathepsin G [5]) | inhibition of cathepsin G (in words) (Human Sputum Cathepsin G [5]; text discussion of Table III) | Inhibitory Activity Chymotrypsin (bovine chymotrypsin [6]) | inhibition of chymotrypsin (in words) (bovine chymotrypsin [6]; text discussion of Table III)
α-1-Proteinase inhibitor | inhibits all of these enzymes | inhibits all of these enzymes | inhibits all of these enzymes |  |  |  |  |  |  |  | 
RVCPMILMKCKKDSDCLAECVCLEHGYCG (RVCPMILMKCKKDSDCLAECVCLEHGYCG) [Peptide 22] |  |  |  | ++ (Represents greater than 50% inhibition) | inhibits | ++ (Represents greater than 50% inhibition) | inhibits | + (Represents between 10% and 50% inhibition) | inhibits | ++ (Represents greater than 50% inhibition) | inhibits
RVCGVILMKCKKDSDCLAECVCLEHGYCG (RVCGVILMKCKKDSDCLAECVCLEHGYCG) [Peptide 46] |  |  |  | - (Represents less than 10% inhibition) |  | ++ (Represents greater than 50% inhibition) | continue to be inhibitors of human elastase | - (Represents less than 10% inhibition) |  | - (Represents less than 10% inhibition) | 
RVCPRILMKCKKDSDCLAECVCLEHGYC (RVCPRILMKCKKDSDCLAECVCLEHGYC) [Control, comparative control, reference compound] |  |  |  | ++ (Represents greater than 50% inhibition) |  | - (Represents less than 10% inhibition) |  | - (Represents less than 10% inhibition) |  | - (Represents less than 10% inhibition) | 
RVCPAILMKCKKDSDCLAECVCLEHGYCG (RVCPAILMKCKKDSDCLAECVCLEHGYCG) [Peptide 36] |  |  |  | + (Represents between 10% and 50% inhibition) |  | ++ (Represents greater than 50% inhibition) | continue to be inhibitors of human elastase | + (Represents between 10% and 50% inhibition) |  | ++ (Represents greater than 50% inhibition) | 
R V C Hyp VILMKCKKDSDCLAECVCLEHGYCG [Peptide 47] |  |  |  | - (Represents less than 10% inhibition) |  | ++ (Represents greater than 50% inhibition) | continue to be inhibitors of human elastase | - (Represents less than 10% inhibition) |  | - (Represents less than 10% inhibition) | 
R V C P V I L Nle KCKKDSDCLAECVCLEHGYCG [Peptide 43] |  |  |  | - (Represents less than 10% inhibition) |  | ++ (Represents greater than 50% inhibition) |  | - (Represents less than 10% inhibition) |  | - (Represents less than 10% inhibition) | 
